B1: MPV458 human monoclonal antibody (antibody, V domains shown)
VH: QGKLVESGGGVIQPGRSLRLSCAASGFDFSRYGLHWVRQAPGKGLEWVAVIVYAGSNKYYADSVKGRFTISKDNSKNTMHLQMSDLRTEDTAVYYCARDQAFDLWGQGTMVTVSS
VL: DIQMTQSPASLSASVGDRVTITCQASQGISRSVNWYQQKPGKAPKLLIFDASHLERGVPSRFSGSGYGTDFTFTISSLQPEDIATYYCQQYDNLRISFGQGTRLEIK
B2: MPV458 Fab (Fab, V domains shown)
VH: QGKLVESGGGVIQPGRSLRLSCAASGFDFSRYGLHWVRQAPGKGLEWVAVIVYAGSNKYYADSVKGRFTISKDNSKNTMHLQMSDLRTEDTAVYYCARDQAFDLWGQGTMVTVSS
VL: DIQMTQSPASLSASVGDRVTITCQASQGISRSVNWYQQKPGKAPKLLIFDASHLERGVPSRFSGSGYGTDFTFTISSLQPEDIATYYCQQYDNLRISFGQGTRLEIK
B3: MPE8 monoclonal antibody (recombinant, human IgG1) (antibody, V domains shown)
VH: EVQLVESGGGLVKPGGSLRLSCAASGFTFSSYSMNWVRQAPGKGLEWVSSISSSSSYIYYADSVKGRFTISRDNAKNSLYLQMNSLRAEDTAVYYCARARATGYNSITPYFDIWGQGTLVTVSS
VL: QSVVTQTPSVSGAPGQRVTISCTGSSSNIGAGYDVHWYQQLPGTAPKLLIYDNNNRPSGVPDRFSASKSGTSASLAITGLQAEDEADYYCQSYDRSLSGVFGTGTKVTVL

How the values were obtained:
[1] = molecular target: recombinant hMPV B2 F protein (human metapneumovirus (subgroup B2)); assay: ELISA
[2] = molecular target: hMPV F protein of subgroup B1 (ELISA panel) (human metapneumovirus (subgroup B1)); assay: ELISA
[3] = molecular target: hMPV F protein of subgroup A1 (ELISA panel) (human metapneumovirus (subgroup A1)); assay: ELISA
[4] = molecular target: hMPV F protein of subgroup A2 (ELISA panel) (human metapneumovirus (subgroup A2)); assay: ELISA
[5] = molecular target: post-fusion trimeric hMPV B2 F (trypsin treated) (human metapneumovirus (subgroup B2)); assay: ELISA
[6] = molecular target: monomeric hMPV B2 F protein, treated with trypsin (human metapneumovirus (subgroup B2)); assay: ELISA
hMPV B2 F GCN4 = assay: ELISA
[7] = molecular target: biotinylated monomeric hMPV B2 F protein (human metapneumovirus (subgroup B2), biotin (site not stated)); assay: BLI

| Binder | EC50 [1] [µg/mL] | EC50 [2] [µg/mL] | EC50 [3] [µg/mL] | EC50 [4] [µg/mL] | EC50 [5] [µg/mL] | EC50 [6] [µg/mL] | EC50 (hMPV B2 F GCN4) [µg/mL] | koff [7] [s⁻¹] |
| --- | --- | --- | --- | --- | --- | --- | --- | --- |
| B1 | 0.12 | 0.39 | 0.33 | 0.39 | 0.13 | 0.027 | 0.2 | – |
| B2 | – | – | – | – | – | – | – | 8.4e-05 |
| B3 | 2 | 3.1 | 1.3 | 4.3 | 1.3 | 0.63 | 4.7 | – |
